In patent publication US9802997B2, “Peptides and combination of peptides for use in immunotherapy against various tumors” (immatics biotechnologies GmbH, priority 2015, dated 2017):

target: HLA-A*02:01 (Homo sapiens, UniProt P04439, D140Y/D185E/D98H/E176V/E277Q/G131W/G231S/I119V/I121R/I166T/I218V/L300P/L318F/N151K/N90K/P208A/P217A/Q86G/Q94H/R138H/R169H/T345S); test: MHC binding assay (UV-ligand exchange, beta2m ELISA); details: binding to HLA-A*02:01, β2m ELISA
Procedure, shortened: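 UV-cleavable peptide in HLA monomers exchanged for test peptide by UV irradiation; exchange yield measured by streptavidin-capture ELISA with HRP anti-β2m (TMB, 450 nm) on 100-fold diluted complexes. Quantified against refolded HLA-A*02:01/MLA-001 standards (15-500 ng/ml).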

Row | Peptide exchange (MHC class I binding score, peptide exchange yield) | Substance
1 | ++ (≧20% = ++) | 20 (ALVEKGEFAL; listed as Homo sapiens) [compound 20]
2 | +++ (≧50 = +++) | 265 (FLLDKPQDLSI; listed as Homo sapiens) [compound 265]
3 | +++ (≧50 = +++) | 10 (QLIEKNWLL; listed as Homo sapiens) [compound 10]
4 | ++ (≧20% = ++) | 105 (AMLASQTEA; listed as Homo sapiens) [compound 105]
5 | +++ (≧50 = +++) | 143 (MLWESIMRV; listed as Homo sapiens) [compound 143]
6 | ++ (≧20% = ++) | 171 (LLLLDVPTA; listed as Homo sapiens) [compound 171]
7 | +++ (≧50 = +++) | 23 (ALLSPLSLA; listed as Homo sapiens) [compound 23]
8 | ++ (≧20% = ++) | 219 (GVVPTIQKV; listed as Homo sapiens) [compound 219]
9 | +++ (≧50 = +++) | 41 (IVTEIISEI; listed as Homo sapiens) [compound 41]
10 | ++ (≧20% = ++) | 146 (VVAAHLAGA; listed as Homo sapiens) [compound 146]
11 | +++ (≧50 = +++) | 223 (ALHPVQFYL; listed as Homo sapiens) [compound 223]
12 | +++ (≧50 = +++) | 55 (HLFDKIIKI; listed as Homo sapiens) [compound 55]
13 | ++ (≧20% = ++) | 114 (LLFPSDVQTL; listed as Homo sapiens) [compound 114]
14 | +++ (≧50 = +++) | 75 (ALLDGALQL; listed as Homo sapiens) [compound 75]
15 | +++ (≧50 = +++) | 214 (ALFETLIQL; listed as Homo sapiens) [compound 214]
16 | +++ (≧50 = +++) | 224 (LLFDWSGTGRADA; listed as Homo sapiens) [compound 224]
17 | +++ (≧50 = +++) | 270 (TLLTFFHEL; listed as Homo sapiens) [compound 270]
18 | ++ (≧20% = ++) | 142 (LLDAAHASI; listed as Homo sapiens) [compound 142]
19 | +++ (≧50 = +++) | 256 (FLNDIFERI; listed as Homo sapiens) [compound 256]
20 | +++ (≧50 = +++) | 251 (LLWGNLPEI; listed as Homo sapiens) [compound 251]
21 | ++ (≧20% = ++) | 198 (ILTNKVVSV; listed as Homo sapiens) [compound 198]
22 | +++ (≧50 = +++) | 40 (KIWEELSVLEV; listed as Homo sapiens) [compound 40]
23 | ++ (≧20% = ++) | 110 (QIQGQVSEV; listed as Homo sapiens) [compound 110]
24 | ++ (≧20% = ++) | 81 (ILAEEPIYI; listed as Homo sapiens) [compound 81]
25 | +++ (≧50 = +++) | 95 (KLIDEDEPLFL; listed as Homo sapiens) [compound 95]
26 | +++ (≧50 = +++) | 22 (LMYPYIYHV; listed as Homo sapiens) [compound 22]
27 | ++ (≧20% = ++) | 185 (TLYQGLPAEV; listed as Homo sapiens) [compound 185]
28 | ++ (≧20% = ++) | 137 (KLIYKDLVSV; listed as Homo sapiens) [compound 137]

Row | Peptide exchange (MHC class I binding score, peptide exchange yield) | Substance
29 | ++ (≧20% = ++) | 69 (LKVLKADVVL; listed as Homo sapiens) [compound 69]
30 | +++ (≧50 = +++) | 160 (TLQEWLTEV; listed as Homo sapiens) [compound 160]
31 | +++ (≧50 = +++) | 276 (RMPTVLQCV; listed as Homo sapiens) [compound 276]
32 | ++ (≧20% = ++) | 51 (LDSEALLTL; listed as Homo sapiens) [compound 51]
33 | ++++ (≧75% = ++++) | 178 (SLVSWQLLL; listed as Homo sapiens) [compound 178]
34 | +++ (≧50 = +++) | 177 (ALINVLNAL; listed as Homo sapiens) [compound 177]
35 | +++ (≧50 = +++) | 44 (AVFNLVHVV; listed as Homo sapiens) [compound 44]
36 | ++++ (≧75% = ++++) | 234 (VLLNEILEQV; listed as Homo sapiens) [compound 234]
37 | ++ (≧20% = ++) | 128 (SILTNISEV; listed as Homo sapiens) [compound 128]
38 | +++ (≧50 = +++) | 195 (VIIQNLPAL; listed as Homo sapiens) [compound 195]
39 | +++ (≧50 = +++) | 82 (ILAEEPIYIRV; listed as Homo sapiens) [compound 82]
40 | ++++ (≧75% = ++++) | 206 (GLDAFRIFL; listed as Homo sapiens) [compound 206]
41 | ++ (≧20% = ++) | 52 (TIGIPFPNV; listed as Homo sapiens) [compound 52]
42 | +++ (≧50 = +++) | 164 (MLIIRVPSV; listed as Homo sapiens) [compound 164]
43 | ++ (≧20% = ++) | 103 (YLADTVQKL; listed as Homo sapiens) [compound 103]
44 | +++ (≧50 = +++) | 218 (SLTGANITV; listed as Homo sapiens) [compound 218]
45 | +++ (≧50 = +++) | 210 (GLAGDNIYL; listed as Homo sapiens) [compound 210]
46 | +++ (≧50 = +++) | 180 (RLYEEEIRI; listed as Homo sapiens) [compound 180]
47 | ++ (≧20% = ++) | 268 (SLDKDIVAL; listed as Homo sapiens) [compound 268]
48 | +++ (≧50 = +++) | 181 (LLWAPTAQA; listed as Homo sapiens) [compound 181]
49 | +++ (≧50 = +++) | 239 (VIIKGLEEITV; listed as Homo sapiens) [compound 239]
50 | +++ (≧50 = +++) | 274 (TLYNPERTITV; listed as Homo sapiens) [compound 274]
51 | ++ (≧20% = ++) | 192 (TLLPSSGLVTL; listed as Homo sapiens) [compound 192]
52 | +++ (≧50 = +++) | 11 (LLDPKTIFL; listed as Homo sapiens) [compound 11]
53 | +++ (≧50 = +++) | 213 (ILAVDGVLSV; listed as Homo sapiens) [compound 213]
54 | +++ (≧50 = +++) | 231 (LLDDIFIRL; listed as Homo sapiens) [compound 231]
55 | +++ (≧50 = +++) | 237 (ALLEQTGDMSL; listed as Homo sapiens) [compound 237]
